From paper doi:10.1101/2020.05.18.102780

Target: Ktedonobacter racemifer acyl carrier protein (KrACP) (Ktedonobacter racemifer DSM 44963)
Test: SDS-PAGE

stoichiometry N: 2
Substance: Ktedonobacter racemifer acyl carrier protein (KrACP) (natural protein)
